Experimental data published in the DeepSol protein solubility set.

Test: soluble on expression in E. coli; label from the status in PepcDB or PDB records

| Sequence | soluble on expression in E. coli |
| --- | --- |
| MNIGIIGTGNMGNILIDAFLETRAVKPSCLTIINRTPAKAYHIKEKYPSVHIAKTIPEVIEQSQLIFICVKPIDIYPILKKYAEHFSDETCLVSITSPISPSQLETLVPCHVARIIPSITNRALSGASLFTFGDNCSEEWQQKLLRLFKNISTPLVIEEDITRVSSDIASCGPAFFSYLLQCFINAAVDKTNITHEEATTLVSEMVVGMGKLLEKEIFTLPTLQEKVCVKGGVTGEGIRVLEEHVGDMFHKLIERTHEKFDEDLECVDQQFNKHTLEHHHHHH | soluble |
| MVYRCTGCGQSQPKWSGQCGGCGQWNTLVEEIEAPAVGRRRAGYAGAAEGSMPVSLAEVSREDLSRVTSGLGELDRVLGGGVVPGSAILLGGDPGIGKSTLLLQTLAYLGKSARTLYVTGEESLSQVSLRAHRLGLDGHGIQALAETSLERILDTAERHKPEVLVVDSIQTVYSEALQSAPGSVGQVRECSAQLVRYAKQSSTTVFLVGHVTKEGALAGPRVLEHMVDTVLYFEGDASSRYRVVRSFKNRFGAVNELGVFAMTETGLKEVRNPSAIFLSRGDEDMPGSIVTVTREGSRPLLVEVQALVDESHLQSPRRLVVGMEMNRLAMLLAVLHRHGGVPVAAQDVFVNLVGGVRLTETAGDLAIACAVVSSFRDRPVPGEWVIFGELGLNGEIRPVPNGEERLREAAKHGFKYALVPAKNAPKQGVPGVSIIAARNLREAINALLEHHHHHH | soluble |
| GKLDEFEAWMRTITKLDIVSLMDFNWGKGGLIKGEKVMNRLGDILGDLHIEDLSIPYTAVAADISNEKEVWLQKGSLLQAIRASISLPLYLMPIEFNGKTLIDGGVLNPVPIA | not soluble |
| MELKKRSEFPENELWDLTALYKDRQDFLLAIEKALQDIDLFKRNYEGRLTSVDDFTQALIEIEHIYIQMSHIGTYAFMPQTTDFSDESFAQIAQAGDDFMTKASVALSFFDTALANADLDVLDTLEKNPYFSAAIRMAKIQKEHLLSPDVEKALANLREVINAPYDIYTKMRAGDFDMDDFEVDGKTYKNSFVSYENFYQNHENAEIREKAFRSFSKGLRKHQNTAAAAYLAKVKSEKLLADMKGYASVFDYLLAEQEVDRSLFDRQIDLIMTEFGPVAQKFLKHVAQVNGLEKMTFADWKLDIDNDLNPEVSIDGAYDLVMKSLAPLGQEYTKEIERYQTERWVDFAANANKDSGGYAADPYKVHPYVLMSWTGRMSDVYTLIHEIGHSGQFIFSDNHQSYFNTHMSTYYVEAPSTFNELMLSDYLEHQFDDPRQKRFALAHRLTDTYFHNFITHLLEAAFQRKVYTLIEEGGTFGADQLNAMMKEVLTDFWGDAVDIDDDAALTWMRQAHYYMGLYSYTYSAGLVISTAGYLNLKHNPNGAKEWLDFLKSGGSRTPLDTAMLIGADIATEKPLRDTIQFLSDTVDQIISYTEDMSHA | soluble |
| MAMVVSSWRDPQDDVAGGNPGGPNPAAQAARGGGGGAGEQQQQAGSGAPHTPQTPGQPGAPATPGTAGDKGQGPPGSGQSQQHIECVVCGDKSSGKHYGQFTCEGCKSFFKRSVRRNLTYTCRANRNCPIDQHHRNQCQYCRLKKCLKVGMRREAVQRGRMPPTQPNPGQYALTNGDPLNGHCYLSGYISLLLRAEPYPTSRYGSQCMQPNNIMGIENICELAARLLFSAVEWARNIPFFPDLQITDQVSLLRLTWSELFVLNAAQCSMPLHVAPLLAAAGLHASPMSADRVVAFMDHIRIFQEQVEKLKALHVDSAEYSCLKAIVLFTSDACGLSDAAHIESLQEKSQCALEEYVRSQYPNQPSRFGKLLLRLPSLRTVSSSVIEQLFFVRLVGKTPIETLIRDMLLSGSSFNWPYMSIQCS | soluble |
| GFPERELPRPGASRPAEKSRPPEAKGAQPADAWKAGRPRSEEDNELNLPNLAAAYSSILRSLGEDPQRQGLLKTPWRAATAMQFFTKGYQETISDVLNDAIFDEDHDEMVIVKDIDMFSMCEHHLVPFVGRVHIGYLPNKQVLGLSKLARIVEIYSRRLQVQERLTKQIAVAITEALQPAGVGVVIEATHMCMVMRGVQKMNSKTVTSTMLGVFREDPKTREEFLTLIRS | soluble |
| MSLDSRTELKEIAGVAKRLTLLYVEDDIPTRRFLKRRLEEIFGVVAEAANGEEGLKRFLQGGIDLVISDNIMPFMDGIEMIREIRRVDTRLPIILTTAFIDTDYLMEAINLGVTQFVAKPISMDLLHNAIQMAIQRVVLDNLTRKAKEQEIELLRFQDRYHSLQQESARRKERNLIKNDHYLQTIQGKEGEEWVLDALHRSLEILSGDSYSVRGLDEGRALLFIVDGMGKGLSASVTTTLSIAFLNYLIDERIAQGARVELGSLVGDYLRFIQKELLEEEIISAGFYDFDFKRERLSYITFGMPSMLWVNSQGECERIKSSSPPLMKYSLPPLPQEICIQDLEKILLYSDGLNEALLDEETIYGEILEEELLWNRFLSEMNRRFRSRVKDVDDDITAFWVRRVPQNPSASRSYEIKSSLLEVHRLSDTIEEGLESFGIFDLEASTRFMTALTEMLMNAYEHGSLGVERLTKDQLIQEGSYDEYLAKESKPHRRIRVRLRRYEEGEATLLTCEVEDEGRGFDTQTLLQNLRNEPETLTSGRGIRLTKGLVDHLCFKKGGRVSQFTVVAREALFGNEGHHHHHH | not soluble |
| MGSDKIHHHHHHLKVLMYSISLAYMIRNLPYASLRAFEAVVRLGSFSAAAGDLGVSQSAVSQHVKSLEEWLGQELLVRGARASKGTRYGTLLAREIDRGLGGISEVCTQIRAASHSDTTVVISCLPGFAFTWLFPRLLRFDLAHPDLSISIATDTGGRPFNPADADIGIRYGHGEFPNLRVDHLMGERLFPVCAPQVAERLTDVASLGQHTLLQDEILNFGSANPSWEYWAEACGVHLPSRARTRRFGQSNLVLQAAIEGLGVALGREPLVLDALTDGRLVRPFTQNVKSPLSYWLVRRKQADDSPKVQEFLKWIKKEAETQPDIPASLNKFA | not soluble |
| MGSDKIHHHHHHMKLPANQEKNQPVPVVKPSSTLEEINQNAAGIDLGSGEHWVCVPPDRADKNVRRFGCFTPDLIAMADWLKECRINTVAMEATGVYWIPVFQVLEAKGFEVKLVNAHHVKTVPGRKTDVLDCQWLQKLHTYGLLSGSFRPEDQVCVLRSYIRQRDTLIKSASAHIQRMQKALIQMNLHLHKVISDVTGLTGMKIIKAIVAGEQDPQVLASLKDPHIKSSTADIAASLTGDYRREHLFVLQQELTLYEIYQQQIIAVDAEIEKCLAYA | not soluble |
| AHHHHHHGSGVPIGEIIPRKEIELENLYGKKIAIDALNAIYQFLSTIRQKDGTPLMDSKGRITSHLSGLFYRTINLMEAGIKPVYVFDGEPPEFKKKELEKRREAREEAEEKWREALEKGEIEEARKYAQRATRVNEMLIEDAKKLLELMGIPIVQAPSEGEAQAAYMAAKGSVYASASQDYDSLLFGAPRLVRNLTITGKRKLPGKNVYVEIKPELIILEEVLKELKLTREKLIELAILVGTDYNPGGIKGIGLKKALEIVRHSKDPLAKFQKQSDVDLYAIKEFFLNPPVTDNYNLVWRDPDEEGILKFLCDEHDFSEERVKNGLERLKKAIKSGKQSTLESWFKR | soluble |
| MGSDKIHHHHHHMEYVNIKLPYDKKQITAKIYKRNLAGILVSKSENYKNSLSEKELVEKSLDNPIASPKLEELVKGKKNIVLISSDHTRPVPSKIITPILLRRIRSVEPNANIIILVATGFHRPSTHEELVDKYGEEIVKRENIVMHVSTDDSAMVQIGTLPSGGPCIINKIAAEADLLIAEGFIESHFFAGFSGGRKSVLPGIASYKTIMANHCGEFINSNKARTGNIKCNPIHEDMVYAARTAGLKFILNVVLDGNKKIIGSFAGDVEKAHETGCDFVKDLARVKKVPCDIAVSTNGGYPLDQNIYQAVKGMTAAEATNKENGVIIMVAGCRDGHGGEGFYKNLANVKTPEEFLEKAIHTERQKTIPDQWTSQILARILSKHHVIMVSDLVDQKLICGMHMELVSNFEEALERAYKIEGKDAKVTVIPDGLSVIVE | not soluble |
| MKHSHEEIRKIIPEMRRVQQIHFIGIGGAGMSGIAEILLNEGYQISGSDIADGVVTQRLAQAGAKIYIGHAEEHIEGASVVVVSSAIKDDNPELVTSKQKRIPVIQRAQMLAEIMRFRHGIAVAGTHGKTTTTAMISMIYTQAKLDPTFVNGGLVKSAGKNAHLGASRYLIAEADESDASFLHLQPMVSVVTNMEPDHMDTYEGDFEKMKATYVKFLHNLPFYGLAVMCADDPVLMELVPKVGRQVITYGFSEQADYRIEDYEQTGFQGHYTVICPNNERINVLLNVPGKHNALNATAALAVAKEEGIANEAILEALADFQGAGRRFDQLGEFIRPNGKVRLVDDYGHHPTEVGVTIKAAREGWGDKRIVMIFQPHRYSRTRDLFDDFVQVLSQVDALIMLDVYAAGEAPIVGADSKSLCRSIRNLGKVDPILVSDTSQLGDVLDQIIQDGDLILAQGAGSVSKISRGLAESWKN | soluble |
| MGSDKIHHHHHHMELKLERHPANPILEPSPYFLWESRFVFNPAVVYDGELFHLLYRAQGEDMVSRIGYAVSTDGIHFNKFEKPVFAPKSDDELYGVEDPRITKIGDEYYMVYTAYSPRGVRIAMASTKNFITWKRYGVVIPEVDNKDAALFPEKINGKYVMFHRIPPDMWLAFSDDLVHWDNFVKIASPRPGMWDDLKIGVGAPPIKTEYGWLVLYHGVQNTGTSRPIYRLGFMLLDLEDPTKVIKRSKEPILEPEEDWEKFGGVPNVVFSDAMIEYNGYYYVYYGAADNCIALATIPVEKVMKWCRE | not soluble |
| MYKTIIMPVDVFEMALSDKAVRHAEFLAQQDGVIHLLHVLPGSASFTMSRFTADLRRFEEHLQHEAETRLQTMVSHFSIDPSRIKLHVRFGSVRDMVNELASEINADVVVIGSRNPSISTHLLGSNASSVIRHAHIPVMVVR | not soluble |
| GPGSMSATDASITGAEAAPASPGTSPAATGPASTAAVTAYTVGIDIGSATTRVAVMDPAKLMPTIIRNALGNEATSTVVSFAANEARSFGENAAARQVTKASETIVDLAPWIFGYTSGEQVPKDTAVSLQVVSPATAMTEACVLKSRQLGAQEHLTHPAQVAAFYIKSLLQLLPEKGMIRTSPVCLAVPSAAYAASFEALRQATLLAGVPQEQTIIAHSDEATAVYFHHLQYSGLPAKHDGAAVPVVLIDIGQSCSVASLIMASQPRVEKVDCQTLRMGSEYIDALLCSHVYSELGKKFGAAADPLRGDIKSFRKILRECRKAKEVLSTTDETQVQLEGLSGDIDIIVSVTRAMMEQAALPFLQAVRAMLTAIKEKLPVPSATEDGSQAAAVPPRVEVIGGGWRSVCVMEAIREVFGITRVGVSLDANLSVAEGSAILAEVRQLTIARQQDEEQTAQATTASSVAEAHQVELIGFEVLDANSPINRPLSEAGVRAVTEWIMLEKQMEDSDARIHERLAALNRLDSYILQTLAAVDNCAASSEKKTEMRAYIEEVDAYVRSEGDEASSVELNEKLAAVQAHVTEHFSEIEAYYESVRAEEKRKEEELVKLSKERQEDESDLKSDPQRLRMAQKRREQGQGLFREECWAEAQTRFVQALSILGQLYDTSSEENKTKKREISLSCYLNIASCSVKLGLWKNAVNNCTNALELVPDHPKALFRRGQAYSALKEYEEAVTDLEKAKAVSQDDPVVVAELNKAKAALGAEKAKTKKMFAKMFS | soluble |
| PQFSLWKRPVVTAYIEGQPVEVLLDTGADDSIVAGIELGNNYSPKIVGGIGGFINTLEYKNVEIEVLNKKVRATIMTGDTPINIFGRNILTALGMSLNL | soluble |
| MHDLDRNEDRLRGTYDFPFEFHHIDHNHPRYVMSYHWHVEYEIIRILDGSLTVTLDEKSFTATAGDIIFVHSGILHSGIPEDCVYQCIVFDGNTFLKNNSVCAGYMQKIIHQEILIYHHFTPKYVDICATVNSLFDALWKKPSGYELSVLGQFYHFFGLIFGNHYYLESVTRARRDYKRILQLKQVLDFIEHNYASPLTLQQLSASVSMSPKYFCRFFSEMTHQTPMDYLNHQRIEQACYQLSTTDDSITEIAYRNGFNDLSYFIRTFKKYKGITPGKYKKA | not soluble |
